Measurements reported in paper PMC4368157, “The Interaction Affinity between Vascular Cell Adhesion Molecule-1 (VCAM-1) and Very Late Antigen-4 (VLA-4) Analyzed by Quantitative FRET” (PLoS ONE, 2015).

Experiments:
[1] = target: T1, Alexa Fluor 488-VLA-4 conjugate (human recombinant Very late antigen-4, soluble form) (human, UniProt P13612 35-977; P05556 21-728, Alexa Fluor 488 on aliphatic amine groups (amine terminus, ε-amino groups of lysines); F/P ratio of the conjugate 3.0 ± 0.8; sites and chain not stated | Alexa Fluor 488 on aliphatic amine groups …); assay: FRET or BRET; in solution, steady state; donor AF488-VLA-4 fixed at 350 nM, acceptor AF546-VCAM-1 titrated up to 850 nM; PBS with 1 mM EGTA, 2 mM MgCl2, pH 7.4, 30 minutes, 96-well plate; excitation 470 nm; fit assumes one-to-one interaction; settings: both partners purified
T1 construct: integrin α4 subunit (CD49d) of VLA-4, human, recombinant soluble form; integrin β1 subunit (CD29) of VLA-4, human, recombinant soluble form; also called AF488-VLA-4; A488-VLA-4; source: bought: R&D Systems; conjugated with Alexa Fluor 488 succinimidyl ester, dialysed
T1 sequence (P13612 35-977, chain 1 of 2): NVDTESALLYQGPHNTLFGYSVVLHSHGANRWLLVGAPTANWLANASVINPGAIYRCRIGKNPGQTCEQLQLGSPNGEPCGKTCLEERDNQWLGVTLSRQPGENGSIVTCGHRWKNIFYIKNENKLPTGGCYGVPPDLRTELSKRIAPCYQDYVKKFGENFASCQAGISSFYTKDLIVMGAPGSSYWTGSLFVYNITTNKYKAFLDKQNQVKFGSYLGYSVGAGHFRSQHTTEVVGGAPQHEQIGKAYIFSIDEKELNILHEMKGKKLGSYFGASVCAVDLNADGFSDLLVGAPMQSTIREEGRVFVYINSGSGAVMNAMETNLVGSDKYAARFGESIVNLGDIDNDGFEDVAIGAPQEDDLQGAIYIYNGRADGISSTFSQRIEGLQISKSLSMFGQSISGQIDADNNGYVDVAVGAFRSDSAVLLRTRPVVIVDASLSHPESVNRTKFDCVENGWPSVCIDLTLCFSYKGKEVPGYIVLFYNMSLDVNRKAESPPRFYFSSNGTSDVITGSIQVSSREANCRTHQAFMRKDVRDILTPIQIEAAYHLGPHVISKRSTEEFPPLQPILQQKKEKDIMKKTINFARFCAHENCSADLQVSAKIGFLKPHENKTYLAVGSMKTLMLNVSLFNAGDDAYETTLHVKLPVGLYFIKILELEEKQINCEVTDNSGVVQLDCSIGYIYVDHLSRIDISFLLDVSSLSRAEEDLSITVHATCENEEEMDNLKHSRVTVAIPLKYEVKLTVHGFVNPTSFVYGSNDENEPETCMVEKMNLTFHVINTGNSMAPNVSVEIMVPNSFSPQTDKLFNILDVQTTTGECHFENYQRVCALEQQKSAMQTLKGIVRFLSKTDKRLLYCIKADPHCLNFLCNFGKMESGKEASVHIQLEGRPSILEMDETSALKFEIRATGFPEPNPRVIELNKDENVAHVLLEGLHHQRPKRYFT
T1 sequence (P05556 21-728, chain 2 of 2): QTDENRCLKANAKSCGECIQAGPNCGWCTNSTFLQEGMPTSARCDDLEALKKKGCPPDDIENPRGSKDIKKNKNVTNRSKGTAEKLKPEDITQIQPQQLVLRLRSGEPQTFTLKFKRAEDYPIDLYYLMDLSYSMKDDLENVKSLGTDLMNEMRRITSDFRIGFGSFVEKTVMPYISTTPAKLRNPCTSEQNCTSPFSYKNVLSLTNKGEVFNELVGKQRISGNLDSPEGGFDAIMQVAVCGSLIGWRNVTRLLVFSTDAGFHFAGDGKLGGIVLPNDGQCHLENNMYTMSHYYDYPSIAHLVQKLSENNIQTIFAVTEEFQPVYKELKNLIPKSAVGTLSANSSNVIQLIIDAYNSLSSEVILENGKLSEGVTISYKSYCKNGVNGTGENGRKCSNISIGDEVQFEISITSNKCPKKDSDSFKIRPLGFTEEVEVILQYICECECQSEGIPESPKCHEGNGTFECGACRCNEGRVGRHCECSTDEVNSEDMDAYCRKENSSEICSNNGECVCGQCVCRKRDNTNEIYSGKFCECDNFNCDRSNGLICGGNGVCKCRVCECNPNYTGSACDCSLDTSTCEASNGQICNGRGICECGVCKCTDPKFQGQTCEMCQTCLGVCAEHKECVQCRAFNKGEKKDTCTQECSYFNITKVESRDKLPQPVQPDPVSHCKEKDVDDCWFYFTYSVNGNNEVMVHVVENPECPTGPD

[2] = target: T2, human recombinant VLA-4 (Very late antigen-4, soluble form, without fluorophore) (human, UniProt P13612 35-977; P05556 21-728); assay: SPR; BIAcore 3000, CM5 chip; VCAM-1Fc captured by immobilised anti-human IgG (Fc); VLA-4 flowed at 100, 150, 400, 450 and 500 nM; PBS with 1 mM EGTA and 2 mM Mg2+; 5 μl/min; Langmuir model; settings: both partners purified
T2 construct: integrin α4 subunit (CD49d) of VLA-4, human, recombinant soluble form; integrin β1 subunit (CD29) of VLA-4, human, recombinant soluble form; Same bought protein as in m1, not conjugated; also called CD49d/CD29; α4β1; source: bought: R&D Systems
T2 sequence (P13612 35-977, chain 1 of 2): as the sequence (P13612 35-977, chain 1 of 2) above
T2 sequence (P05556 21-728, chain 2 of 2): as the sequence (P05556 21-728, chain 2 of 2) above

B1: Alexa Fluor 546-VCAM-1 conjugate (human recombinant Vascular Cell Adhesion Molecule-1, soluble form) (ligand, UniProt P19320 25-698, looked up)
chain: FKIETTPESRYLAQIGDSVSLTCSTTGCESPFFSWRTQIDSPLNGKVTNEGTTSTLTMNPVSFGNEHSYLCTATCESRKLEKGIQVEIYSFPKDPEIHLSGPLEAGKPITVKCSVADVYPFDRLEIDLLKGDHLMKSQEFLEDADRKSLETKSLEVTFTPVIEDIGKVLVCRAKLHIDEMDSVPTVRQAVKELQVYISPKNTVISVNPSTKLQEGGSVTMTCSSEGLPAPEIFWSKKLDNGNLQHLSGNATLTLIAMRMEDSGIYVCEGVNLIGKNRKEVELIVQEKPFTVEISPGPRIAAQIGDSVMLTCSVMGCESPSFSWRTQIDSPLSGKVRSEGTNSTLTLSPVSFENEHSYLCTVTCGHKKLEKGIQVELYSFPRDPEIEMSGGLVNGSSVTVSCKVPSVYPLDRLEIELLKGETILENIEFLEDTDMKSLENKSLEMTFIPTIEDTGKALVCQAKLHIDDMEFEPKQRQSTQTLYVNVAPRDTTVLVSPSSILEEGSSVNMTCLSQGFPAPKILWSRQLPNGELQPLSENATLTLISTKMEDSGVYLCEGINQAGRSRKEVELIIQVTPKDIKLTAFPSESVKEGDTVIISCTCGNVPETWIILKKKAETGDTVLKSIDGAYTIRKAQLKDAGVYECESKNKVGSQLRSLTLDVQGRENNKDYFSPE
modifications: Alexa Fluor 546 on aliphatic amine groups (amine terminus, ε-amino groups of lysines); F/P ratio 0.60 ± 0.02; sites not stated
notes: Vascular Cell Adhesion Molecule-1 (VCAM-1/CD106), human, recombinant soluble form; also called AF546-VCAM-1; CD106; source: bought: R&D Systems; conjugated with Alexa Fluor 546 succinimidyl ester, dialysed
Kd [1]: 41.8 nM

B2: human recombinant VCAM-1 Fc chimera (Fc fusion, UniProt P19320 25-698, looked up)
chain: B1 chain
notes: Vascular Cell Adhesion Molecule-1 (VCAM-1/CD106), human, recombinant soluble form fused to Fc; source: bought: R&D Systems
Kd [2]: 39.6 ± 1.78 nM
